The values that follow come from patent US20030124121A1 (IMMUNEX, published 2003).

In assay [1] the target is T1, human IL-4 receptor (human, UniProt P24394 26-232, limits assumed).
T1 construct: extracellular domain is 1 to 207 or -2 to 207 in that numbering; also called huIL-4R; IL-4Ralpha
The experiment in a line: hybridoma identification; assay not described.

For assay [2], the target named is T1, human IL-4 receptor. Put plainly: hybridoma screen for human gamma/kappa specific to IL-4R. An excerpt:
The mouse was sacrificed, and spleen cells were extracted and fused with the murine myeloma cell line P3x63Ag8.653 (ATCC CRL 1580). A conventional PEG fusion protocol was followed. The fusion was screened for HuIgG and HuKappa, followed by a rescreen for human gamma and kappa specific to IL-4R. […] Techniques for altering (switching) the subclass/isotype of an antibody are known. […] Sequence information for a human IgG4 heavy chain is presented, for example, in Ellison et al. (DNA Vol. 1, no. 1, pp 11-18, 1981), which is hereby incorporated by reference herein.

For assay [3], the target named is T1, human IL-4 receptor. Put plainly: assay not described.

B1: MAb 27A1 (antibody, IgG1, V domains shown)
VH: QVQLVESGGGVVQPGRSLRLSCSASGFTFSRYGMHWVRQAPGRGLEWVAIIWFEGNNQYYADSVKGRFTVSRDNSKNTLYLEMNSLRAEDTAVYYCARGKYYFDYWGQGTLVTVSS
VL: not shown
notes: Fully human antibody
Take B1: in assay [1], the binding result is on record as “binds”.

B2: MAb 12B5 (antibody, human IgG1, V domains shown)
VH: EVQLVQSGGGLVHPGGSLRLSCAGSGFTFSRNAMFWVRQAPGKGLEWVSGIGTGGATNYADSVKGRFTISRDNAKNSLYLQMNSLRAEDMAVYYCARGRYYFDYWGQGTLVTVSS
VL: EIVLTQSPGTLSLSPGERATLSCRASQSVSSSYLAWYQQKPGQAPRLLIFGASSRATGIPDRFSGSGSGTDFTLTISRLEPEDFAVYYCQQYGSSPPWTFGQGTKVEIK
notes: also called clone 12B5
As to B2, in assay [2], the binding result is on record as “binds”.

B3: MAb 63 (antibody, IgM, V domains shown)
VH: EVQVLESGGNLVQPGGSLRLSCAASGFTFSSYAMSWVRQAPGKGLEWVSSITGSGGSTYYADSVKGRFTISRDNSKNTLYLQMNSLRAEDTAIFYCAKDNRGFFHYWGQGTLVTVSS
VL: DIQMTQSPSSVSASVGDRVTITCRASQGISTWLAWYQHKPGKAPKLLIYVASSLQSGVPSRFSGSGSGTDFTLTISSLQPEDFATYYCQQANSFPFTFGPGTKVDIK
notes: Fully human antibody
As to B3, in assay [1], the binding result is recorded as “binds”.

B4: MAb 1B7 (antibody, V domains shown)
VH: EVQVLESGGNLVQPGGSLRLSCAASGFTFSSYAMSWVRQAPGKGLEWVSSITGSGGSTYYADSVKGRFTISRDNSKNTLYLQMNSLRAEDTAIFYCAKDNRGFFHYWGQGTLVTVSS
VL: EIVLTQSPSSVSASVGDRVTITCRASQGISNRLAWYQQKPGKAPKLLIYIASILQRGVPSRFSGSGSGTDFTLTITRLQPEDFATYYCQQANSFPFTFGPGTKVDIK
notes: Derived from MAb 63; differs from it only in the light chain; heavy chain identical to MAb 63
For B4, the binding result in assay [3] is on record as “binds”.

B5: MAb 5A1 (antibody, IgG1, V domains shown)
VH: EVQLVQSGGGLVHPGGSLRLTCAGSGFTFSNFVMHWVRQTPGQGLEWVSAIGTGGGTYYADSVKGRFTISRDNAKSSLYLQMNSLRAEDMAVYYCARDRPMVRGVIIDYFDYWGQGTLVTVSS
VL: EIVLTQSPATLSLSPGERATLSCRASQSVSSYLAWYQQKPGQAPRLLIYHASNRATGIPARFSGSGSGTDFTLTISSLEPEDFAVYYCQQRSNWPLTFGGGTKVEIK
notes: Fully human antibody
B5: the binding result in assay [1] is given as “binds”.
